Measurements published in publication PMC12474298.

Molecular target: HaHV1 UL36h NLS peptide (residues 1491-1500), FITC/Ahx-labelled (haliotid herpesvirus 1 (HaHV1))
Assay: fluorescence polarisation

| Substance | Kd [nM] |
| --- | --- |
| human importin α1 lacking the importin-β binding domain (hIMPα1ΔIBB) (domain or fragment) | 226 |
| human importin α3 lacking the importin-β binding domain (hIMPα3ΔIBB) (domain or fragment) | 193 |
